The text below walks through data of patent US20170260530, “APTAMERS FOR PURIFYING AND QUANTIFYING GELSOLIN AND ITS VARIANTS” (Council of Scientific & Industrial Research, published 2017).

The target of data set [1] is T1, Gelsolin (GSN) (Homo sapiens, UniProt P06396 SEQ:28-782). Nature of the data set: microtiter (ELISA-type) assay, immobilized aptamer, 100 nM gelsolin; selection buffer with 2 mM CaCl2, 5 mM MgCl2; RT. To be noted: tags: tagless; expressed from pET303/CT-His vector in E. coli BL21(DE3); label: biotin. Background: In an ELISA, binding on a coated surface is turned into a signal by an enzyme label.

For data set [2], the target named is T1, Gelsolin (GSN). The data set is described as follows: microtiter (ELISA-type) assay, immobilized aptamer 1.56-100 nM, 100 nM gelsolin; 25 mM Tris pH 8, 150 mM NaCl, 2 mM CaCl2, 5 mM MgCl2, 10 mM KCl; RT. The conditions noted are these: tags: tagless; expressed from pET303/CT-His vector in E. coli BL21(DE3); label: biotin.

T1 sequence (P06396 28-782): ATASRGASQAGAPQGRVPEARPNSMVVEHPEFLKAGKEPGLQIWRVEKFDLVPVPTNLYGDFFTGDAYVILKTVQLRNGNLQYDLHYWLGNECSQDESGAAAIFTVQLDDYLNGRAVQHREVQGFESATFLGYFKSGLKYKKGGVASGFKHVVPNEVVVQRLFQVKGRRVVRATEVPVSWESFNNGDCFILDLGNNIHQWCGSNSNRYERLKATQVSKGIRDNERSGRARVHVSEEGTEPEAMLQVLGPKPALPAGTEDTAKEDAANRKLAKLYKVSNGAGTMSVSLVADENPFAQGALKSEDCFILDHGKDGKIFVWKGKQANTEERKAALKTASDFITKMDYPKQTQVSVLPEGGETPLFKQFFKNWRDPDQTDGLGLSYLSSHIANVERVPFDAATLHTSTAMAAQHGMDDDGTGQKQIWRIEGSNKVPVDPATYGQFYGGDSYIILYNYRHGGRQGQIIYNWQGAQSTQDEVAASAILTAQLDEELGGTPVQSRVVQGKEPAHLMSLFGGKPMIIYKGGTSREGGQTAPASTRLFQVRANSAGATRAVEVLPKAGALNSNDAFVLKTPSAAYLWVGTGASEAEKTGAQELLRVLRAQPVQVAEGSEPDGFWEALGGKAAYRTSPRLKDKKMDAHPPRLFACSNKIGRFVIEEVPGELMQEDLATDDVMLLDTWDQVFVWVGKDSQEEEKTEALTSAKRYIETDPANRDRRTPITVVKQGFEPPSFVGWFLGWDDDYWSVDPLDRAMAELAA

B1: L26F (ssDNA)
DNA: TAGGGAAGAGAAGGACATATGATGGGGCACTGGAGGGTGGGGGAGCGGGGGCGGTTGACTAGTACATGACCACTTGA
Usually Kd stands for a measure of binding affinity in units of concentration. The low end stands for a tighter complex, the high end for a looser complex. B1 returned a Kd with Gelsolin (GSN) [1] of 15.3 nM.

B2: L24F (ssDNA)
DNA: TAGGGAAGAGAAGGACATATGATCGGGGGGCGGGTATTGGGGGCCGGGGGGATTGACTAGTACATGACCACTTGA
B2 registered a Kd in the data set with Gelsolin (GSN) [1] of 15.7 nM.

B3: 10.10R (ssDNA)
DNA: TCAAGTGGTCATGTACTAGTCAAGCACTTTCGCTGCTCGCTGGCGCCGCGCCCATCATATGTCCTTCTCTTCCCTA
On to B3, for which, in the data set with Gelsolin (GSN) [2], the Kd worked out at 7.2 nM.

B4: L16F (ssDNA)
DNA: TAGGGAAGAGAAGGACATATGATAGGGGGATAGGAGGGGGTGGGATTGGGGGATTGACTAGTACATGACCACTTGA
The molecule B4 had a Kd in the data set with Gelsolin (GSN) [1] of 12.7 nM.
